Measurements from patent US20110143993A1 (BRIGHAM AND WOMEN S HOSPITAL, published 2011).
No end group written: not given here.

Legend:
bovine serum albumin = molecular target: T1, bovine serum albumin (bovine, UniProt P02769 25-607); assay: phage ELISA on BSA-coated wells, anti-M13 HRP/ABTS
T1 construct: also called BSA
Protocol: The clones were tested against the random library (R0) for binding to Matrigel (lighter shaded bars) or BSA (black bars). Bound phages were labeled with peroxidase-conjugated anti-M13 monoclonal antibodies (mAbs), and ABTS absorbance at 405 nm was read against a reference wavelength of 490 nm (mean±s.d., n=3). (**) P<0.01; (***) P<0.001, all compared with R0 (one-way analysis of variance with Tukey post-hoc test).
96-well plates were coated with 100 μL 1/50 dilutions of Matrigel in TBS overnight at 4° C., or TBS buffer only. Plates were blocked with 3% BSA/TBS for 2 h at RT and washed three times. 10¹⁰ p.f.u. of each phage clone was added in 0.5% TBST in triplicate to either Matrigel or BSA-coated wells. Bound phage particles were detected with peroxidase-conjugated mouse anti-M13 monoclonal antibodies at 1/5000 dilution (Amersham Pharmacia Biotech, Piscataway, N.J.). After a 1 h incubation, the reaction was developed with 2,2′-azino-bis(3-ethylbenzthiazoline-6-sulphonic acid) (ABTS) (Amersham) and the absorbance was read at 405 nm against a reference wavelength of 490 nm with a SpectraMax Plus 384 Microplate reader (Molecular Devices, Sunnyvale, Calif.).

[1] = molecular target: T2, Matrigel growth factor reduced LDEV free (basement membrane extract rich in collagen IV and laminin); assay: phage titer count of eluted phage, input 10^12/mL p.f.u., against random library R0, n=3
T2 construct: A mixture coated on plates, not one protein

T1 sequence (P02769 25-607 limits assumed): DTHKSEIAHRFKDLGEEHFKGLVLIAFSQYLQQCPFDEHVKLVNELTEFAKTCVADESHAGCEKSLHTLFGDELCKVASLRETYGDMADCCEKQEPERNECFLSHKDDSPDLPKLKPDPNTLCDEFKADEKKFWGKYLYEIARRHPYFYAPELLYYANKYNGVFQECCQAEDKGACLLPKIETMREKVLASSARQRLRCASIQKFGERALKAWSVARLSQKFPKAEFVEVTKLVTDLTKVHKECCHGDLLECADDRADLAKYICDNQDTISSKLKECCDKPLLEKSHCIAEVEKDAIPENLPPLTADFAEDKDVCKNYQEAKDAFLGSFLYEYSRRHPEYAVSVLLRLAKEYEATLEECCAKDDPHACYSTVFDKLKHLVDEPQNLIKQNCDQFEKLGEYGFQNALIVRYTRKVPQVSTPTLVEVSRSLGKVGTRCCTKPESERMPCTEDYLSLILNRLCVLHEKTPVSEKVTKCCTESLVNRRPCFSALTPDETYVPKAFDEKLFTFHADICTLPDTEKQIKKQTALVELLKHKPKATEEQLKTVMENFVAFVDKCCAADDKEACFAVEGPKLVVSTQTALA

Binder	binding result (bovine serum albumin)	fold binding compared to the library (R0), phage titer [1]
KIWKLPQ (Whole phage particle displaying the heptamer; tested as phage, detected with anti-M13 antibody; not shown: minor coat protein pIII of M13 filamentous phage (Ph.D.-7 library, New England Biolabs)) [phage clone C-10 (KIWKLPQ displayed on pIII of M13 phage)]	no binding (tested: 10^10 p.f.u. of each phage clone)	
KVWSLPQ (Whole phage particle displaying the heptamer; tested as phage, detected with anti-M13 antibody; not shown: minor coat protein pIII of M13 filamentous phage (Ph.D.-7 library, New England Biolabs)) [phage clone A-8 (KVWSLPQ displayed on pIII of M13 phage)]	no binding (tested: 10^10 p.f.u. of each phage clone)	
KIFVWPY (not fully specified, Whole phage particle displaying the heptamer; tested as phage, detected with anti-M13 antibody; not shown: minor coat protein pIII of M13 filamentous phage (Ph.D.-7 library, New England Biolabs)) [phage clone A-9 (KIFVWPY displayed on pIII of M13 phage)]	no binding (tested: 10^10 p.f.u. of each phage clone)	
KLWVLPK (Whole phage particle displaying the heptamer; tested as phage (ELISA with anti-M13 antibody, titer counts); also called Phage C-11; not shown: minor coat protein pIII of M13 filamentous phage (Ph.D.-7 library, New England Biolabs)) [phage clone C-11 (KLWVLPK displayed on pIII of M13 phage)]	no binding (tested: 10^10 p.f.u. of each phage clone)	~300 fold
HWGSLRA (100% of the round 5 clones; not shown: minor coat protein pIII of M13 filamentous phage (Ph.D.-7 library, New England Biolabs)) [phage clone C-8 (HWGSLRA displayed on pIII of M13 phage)]	no binding (tested: 10^10 p.f.u. of each phage clone)	
